Data from patent US7410775B2, “Method for making recombinant peptides or proteins using soluble endoproteases” (Bio-Ker S.R.L., priority 2000, dated 2008).
Residues, ends and D or L forms follow the SMILES beside them. *: point of attachment. pNA = O=[N+]([O-])c1ccc(N*)cc1; Cbz = O=C(OCc1ccccc1)*

Tests used:
[1] = target: T1, Kluyveromyces lactis Kex1 protease, soluble secreted variant ss-Kex1-C600 (truncated at amino acid 600; parent Kex1 SEQ ID NO: 3) (Kluyveromyces lactis, UniProt P09231); assay: Kinetic constants of ss-Kex1-C600 (single initial substrate concentration, progress curve, Michaelis-Menten fit); format: biochemical
T1 sequence (P09231 103-600): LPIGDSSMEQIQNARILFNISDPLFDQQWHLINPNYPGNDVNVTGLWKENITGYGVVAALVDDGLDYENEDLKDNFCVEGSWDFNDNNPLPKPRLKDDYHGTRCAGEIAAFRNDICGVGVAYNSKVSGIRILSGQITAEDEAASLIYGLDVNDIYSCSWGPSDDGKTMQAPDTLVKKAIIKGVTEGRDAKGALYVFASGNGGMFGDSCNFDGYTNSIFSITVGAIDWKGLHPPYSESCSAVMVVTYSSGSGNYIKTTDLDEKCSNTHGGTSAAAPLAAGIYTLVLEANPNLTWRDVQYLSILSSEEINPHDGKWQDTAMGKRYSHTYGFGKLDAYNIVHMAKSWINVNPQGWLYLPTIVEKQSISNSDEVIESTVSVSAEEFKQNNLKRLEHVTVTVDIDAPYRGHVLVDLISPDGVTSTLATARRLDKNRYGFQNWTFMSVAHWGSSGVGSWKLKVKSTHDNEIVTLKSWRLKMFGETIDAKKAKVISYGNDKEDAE
Method: (§1) The enzyme activity was determined by a calorimetric test which exploits the capacity of the enzyme to hydrolyse the substrate Z-L-tyrosine-L-lysine-L-arginine-p-nitroanilide (Z-Y-K-R-pNA). The incubation mixture comprises 0.1 mM Z-Y-K-R-pNA in 0.2 M Hepes, pH 7.0 and 1 mM CaCl2, in a total volume of 1.5 ml at 37° C. The reaction is monitored at 405 nm, a wavelength at which the maximum decrease in the molar extinction coefficient (As), equal to 10.9 mM^−1 cm^−1, occurs. An enzyme unit is defined as being the quantity of enzyme that catalyses the transformation of 1 μmole of substrate per minute under the conditions described above. […]
(§2) The kinetic constants were determined by a simplified procedure which requires that measurements be carried out at a single initial concentration of substrate and until the substrate is exhausted. The method provides that, at various times, the average values of residual concentration and rate be determined and is applicable in those cases in which the enzyme catalyses an entirely irreversible reaction under the operating conditions, and is not subject to inhibition by product (Segel, I. H. (1975) Enzyme Kinetics, Wiley, New York). […]

[2] = target: T2, Saccharomyces cerevisiae Kex2 protease, soluble secreted form ss-Kex2-C613 (parent Kex2 SEQ ID NO: 4) (Saccharomyces cerevisiae, UniProt P13134); assay: Kinetic constants of ss-Kex2-C613 (single initial substrate concentration, progress curve, Michaelis-Menten fit); format: biochemical
T2 construct: pro-region cut at Lys108-Arg109; from yeast
T2 sequence (P13134 1-613): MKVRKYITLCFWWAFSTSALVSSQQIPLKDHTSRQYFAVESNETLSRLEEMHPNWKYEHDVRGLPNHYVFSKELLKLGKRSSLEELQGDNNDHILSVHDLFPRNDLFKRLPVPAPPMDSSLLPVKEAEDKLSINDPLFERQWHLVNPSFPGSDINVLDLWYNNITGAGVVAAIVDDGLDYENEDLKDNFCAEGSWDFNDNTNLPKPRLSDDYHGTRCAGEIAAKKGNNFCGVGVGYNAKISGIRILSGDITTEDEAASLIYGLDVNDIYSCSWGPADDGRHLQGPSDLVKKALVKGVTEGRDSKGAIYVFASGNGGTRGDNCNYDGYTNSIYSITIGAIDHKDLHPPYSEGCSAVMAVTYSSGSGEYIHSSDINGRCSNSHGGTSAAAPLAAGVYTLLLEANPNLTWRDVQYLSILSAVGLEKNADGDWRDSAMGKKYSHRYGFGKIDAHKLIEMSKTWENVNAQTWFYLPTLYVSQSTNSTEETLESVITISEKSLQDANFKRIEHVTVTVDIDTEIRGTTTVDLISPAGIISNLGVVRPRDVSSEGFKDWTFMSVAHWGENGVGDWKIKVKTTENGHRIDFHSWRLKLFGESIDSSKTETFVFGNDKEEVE
Method: as §1, §2

[3] = substrate: N=C(N)NCCC[C@H](NC(=O)[C@H](CCCCN)NC(=O)[C@H](Cc1ccc(O)cc1)NC(=O)OCc1ccccc1)C(=O)Nc1ccc([N+](=O)[O-])cc1; assay: Kinetic constants of ss-Kex1-C600 (single initial substrate concentration, progress curve, Michaelis-Menten fit); format: biochemical, Kluyveromyces lactis; conditions: other: ss-Kex1-C600; pH 7.0
Method: The enzyme activity was determined by a calorimetric test which exploits the capacity of the enzyme to hydrolyse the substrate Z-L-tyrosine-L-lysine-L-arginine-p-nitroanilide (Z-Y-K-R-pNA). The incubation mixture comprises 0.1 mM Z-Y-K-R-pNA in 0.2 M Hepes, pH 7.0 and 1 mM CaCl2, in a total volume of 1.5 ml at 37° C. The reaction is monitored at 405 nm, a wavelength at which the maximum decrease in the molar extinction coefficient (As), equal to 10.9 mM^−1 cm^−1, occurs. An enzyme unit is defined as being the quantity of enzyme that catalyses the transformation of 1 μmole of substrate per minute under the conditions described above. Unless expressly indicated otherwise, the data presented in Table 2 refer to the activity secreted in the growth medium by derivatives of the W303 strain which was grown in a flask at 30° C., with agitation (220 rpm), in 1040 medium-2% galactose (except for strains NP255 and NP265 in which the carbon source added to the growth medium was 2% glucose). Various samples were taken along the growth curve for each strain. […] The invention is therefore not limited by the type of promoter used, as long as the levels of secretion of the endoprotease of the invention are satisfactory.
The kinetic constants were determined by a simplified procedure which requires that measurements be carried out at a single initial concentration of substrate and until the substrate is exhausted. The method provides that, at various times, the average values of residual concentration and rate be determined and is applicable in those cases in which the enzyme catalyses an entirely irreversible reaction under the operating conditions, and is not subject to inhibition by product (Segel, I. H. (1975) Enzyme Kinetics, Wiley, New York). The results so obtained were processed using the Grafit programme, which permitted the interpolation of the Michaelis-Menten profile and the determination of the values of Km and Vmax, presented in Table 3. kcat and the kcat/Km ratio were then obtained from those values and from the enzyme concentration.

[4] = substrate: N=C(N)NCCC[C@H](NC(=O)[C@H](CCCCN)NC(=O)[C@H](Cc1ccc(O)cc1)NC(=O)OCc1ccccc1)C(=O)Nc1ccc([N+](=O)[O-])cc1; assay: Kinetic constants of ss-Kex2-C613 (single initial substrate concentration, progress curve, Michaelis-Menten fit); format: biochemical, Saccharomyces cerevisiae; conditions: other: ss-Kex2-C613; pH 7.0
Method: as §1, §2

Molecule: N=C(N)NCCC[C@H](NC(=O)[C@H](CCCCN)NC(=O)[C@H](Cc1ccc(O)cc1)NC(=O)OCc1ccccc1)C(=O)Nc1ccc([N+](=O)[O-])cc1 [Z-Y-K-R-pNA, Z-L-tyrosine-L-lysine-L-arginine-p-nitroanilide] (Cbz-Tyr-Lys-Arg-pNA)
- Vmax [1]: 1720 (ΔA min^−1) × 10^3
- Vmax [2]: 1029 (ΔA min^−1) × 10^3

B1: Kluyveromyces lactis Kex1 protease, soluble secreted variant ss-Kex1-C600 (truncated at amino acid 600; parent Kex1 SEQ ID NO: 3) (Kluyveromyces lactis NRRL … (protein)
chain: LPIGDSSMEQIQNARILFNISDPLFDQQWHLINPNYPGNDVNVTGLWKENITGYGVVAALVDDGLDYENEDLKDNFCVEGSWDFNDNNPLPKPRLKDDYHGTRCAGEIAAFRNDICGVGVAYNSKVSGIRILSGQITAEDEAASLIYGLDVNDIYSCSWGPSDDGKTMQAPDTLVKKAIIKGVTEGRDAKGALYVFASGNGGMFGDSCNFDGYTNSIFSITVGAIDWKGLHPPYSESCSAVMVVTYSSGSGNYIKTTDLDEKCSNTHGGTSAAAPLAAGIYTLVLEANPNLTWRDVQYLSILSSEEINPHDGKWQDTAMGKRYSHTYGFGKLDAYNIVHMAKSWINVNPQGWLYLPTIVEKQSISNSDEVIESTVSVSAEEFKQNNLKRLEHVTVTVDIDAPYRGHVLVDLISPDGVTSTLATARRLDKNRYGFQNWTFMSVAHWGSSGVGSWKLKVKSTHDNEIVTLKSWRLKMFGETIDAKKAKVISYGNDKEDAE
- Km [3]: 61.4 µM
- kcat [3]: 3070 s⁻¹
- kcat/Km [3]: 5e+07 M⁻¹ s⁻¹

B2: Saccharomyces cerevisiae Kex2 protease, soluble secreted form ss-Kex2-C613 (parent Kex2 SEQ ID NO: 4) (Saccharomyces cerevisiae S288C) (protein)
chain: MKVRKYITLCFWWAFSTSALVSSQQIPLKDHTSRQYFAVESNETLSRLEEMHPNWKYEHDVRGLPNHYVFSKELLKLGKRSSLEELQGDNNDHILSVHDLFPRNDLFKRLPVPAPPMDSSLLPVKEAEDKLSINDPLFERQWHLVNPSFPGSDINVLDLWYNNITGAGVVAAIVDDGLDYENEDLKDNFCAEGSWDFNDNTNLPKPRLSDDYHGTRCAGEIAAKKGNNFCGVGVGYNAKISGIRILSGDITTEDEAASLIYGLDVNDIYSCSWGPADDGRHLQGPSDLVKKALVKGVTEGRDSKGAIYVFASGNGGTRGDNCNYDGYTNSIYSITIGAIDHKDLHPPYSEGCSAVMAVTYSSGSGEYIHSSDINGRCSNSHGGTSAAAPLAAGVYTLLLEANPNLTWRDVQYLSILSAVGLEKNADGDWRDSAMGKKYSHRYGFGKIDAHKLIEMSKTWENVNAQTWFYLPTLYVSQSTNSTEETLESVITISEKSLQDANFKRIEHVTVTVDIDTEIRGTTTVDLISPAGIISNLGVVRPRDVSSEGFKDWTFMSVAHWGENGVGDWKIKVKTTENGHRIDFHSWRLKLFGESIDSSKTETFVFGNDKEEVE
notes: pro-region cut at Lys108-Arg109; from yeast
- Km [4]: 56.8 µM
